# In patent US20220227815A1, “COMPOSITIONS AND METHODS USEFUL IN TREATING BRAIN DISEASES” (University of Kansas, priority 2019, published 2022):
# B1: BDNF: recombinant brain-derived neurotrophic factor (13 kDa monomer), Peprotech (protein, UniProt P23560 19-247, looked up)
# Neurotrophic factor BDNF …: APMKEANIRGQGGLAYPGVRTHGTLESVNGPKAGSRGLTSLADTFEHVIEELLDEDQKVRPNEENNKDADLYTSRVMLSSQVPLEPPLLFLLEEYKNYLDAANMSMRVRRHSDPARRGELSVCDSISEWVTAADKKTAVDMSGGTVTVLEKVPVSKGQLKQYFYETKCNPMGYTKEGCRGIDKRHWNSQCRTTQSYVRALTMDSKKRIGWRFIRIDTSCVCTLTIKRGR
# Experiments:
# [1] = test system: myelin in the lateral corpus callosum; assay: Remyelination in EAE mouse brain, Luxol fast blue staining; type: in vivo, SJL/elite mice; details: EAE mice; BDNF 5.71 nmol/kg ± ADTC5 10 μmol/kg; n=5; compared to BDNF alone or vehicle
# From the text: Euthanasia, Brain Perfusion, and Extraction: All mice were euthanized via a CO2 chamber. Immediately following euthanasia, mice underwent cervical dislocation and were transcardially perfused with PBS+0.2% Tween-20 followed by perfusion-fixation with a 4% paraformaldehyde and 30% sucrose PBS solution. Following the fixation, the brains were extracted and post-fixed overnight in the perfusion-fixation solution.
# Fixed brain samples were submitted to IHC World (Ellicott City, Md.) for paraffin embedding, tissue sectioning (5 μm), anti-NG2 (Abcam, Cambridge, UK) staining via DAB, and Luxol-fast blue staining. Staining protocols described on the IHC World website for Luxol-fast blue and immunohistochemistry enzyme HRP were performed. […]
# Luxol-fast blue and anti-NG2 mAb images were taken under identical conditions on a Zeiss Axioplan 2 microscope (Oberkochen, Germany) equipped with a mercury lamp excitation source, and 40× (Luxol) and 20× (anti-NG2) air objective lenses. Greyscale images for quantification were taken using a 1344×1024 Orca ER CCD camera (Hamamatsu Photonics, Japan), color images for qualitative purposes were taken using a 1.3 MP Spot Color camera (Spot Imaging, Sterling Heights, Mich.). […] The mean value of each ROI from each image was recorded. […] The integrated mean grey value for each ROI from each image was recorded. […]
# [2] = test system: EGR1, ARC, and MAPK1 mRNA transcripts; assay: Fluorescence in situ hybridization of mRNA transcripts in APP/PS1 hippocampus CA1; type: in vivo, transgenic APP/PS1 mice; details: CA1 region of hippocampus; all three groups compared
# Method: Coronal brain sections (10 μm thickness) were washed three times in PBS before mounting on gelatin-coated glass slides (Superfrost Plus, Thermo Fisher Scientific). Tissues were allowed to dry at RT and were then stored at −20° C. until use. Fluorescence in situ hybridization (FISH) was performed using Multiplex Reagent Kit V2 from RNAscope® Technology 2.0 (Advanced Cell Diagnostics (ACD), Hayward, Calif.). See Vasquez, J. J., Hussien, R., Aguilar-Rodriguez, B., Junger, H., Dobi, D., Henrich, T. J., Thanh, C., Gibson, E., Hogan, L. E., McCune, J., Hunt, P. W., Stoddart, C. A.,Laszik, Z. G., Elucidating the Burden of HIV in Tissues Using Multiplexed Immunofluorescence and In Situ Hybridization: Methods for the Single-Cell Phenotypic Characterization of Cells Harboring HIV In Situ. J Histochem Cytochem 2018; 66:427-46; Gershon, T. R., Crowther, A. J., Liu, H., Miller, C. R.,Deshmukh, M., Cerebellar granule neuron progenitors are the source of Hk2 in the postnatal cerebellum. Cancer Metab 2013; 1:15; and Smith, P. A., Schmid, C., Zurbruegg, S., Jivkov, M., Doelemeyer, A., Theil, D., Dubost, V., Beckmann, N., Fingolimod inhibits brain atrophy and promotes brain-derived neurotrophic factor in an animal model of multiple sclerosis. J Neuroimmunol 2018; 318:103-13. Mounted tissue sections were deparaffinized using xylene and serially dehydrated in 50%, 70%, 95%, and 100% ethanol for 5 min each. […]
molecule,measurement,setting,value
B1,myelin density in the lateral corpus callosum,[1],myelin discontinuity
same,MAPK1 expression,[2],no significant differences
